In PMC4372654:
Where two headings read alike, the source gives them in different places.

B1: IR4 (dsDNA)
DNA 1: CATACTACATACAATATACAACATACTACAATATGGAGGGTG
DNA 2: GTACCACCCTCCATATTGTAGTATGTTGTATATTGTATGTAGTATGAGCT
B2: IR3 (dsDNA)
DNA 1: CATACTACATATTACATATTACATACTACATACTACAATATGGAGGGTG
DNA 2: GTACCACCCTCCATATTGTAGTATGTAGTATGTAATATGTAATATGTAGTATGAGCT
B3: IR1 (dsDNA)
DNA 1: CATGAAAAAATCATG
DNA 2: GTACCATGATTTTTTCATGAGCT

Legend:
Assay in all cases: competition
[1] = target: T1, Orf8 (KfrA homolog), His-tagged (Paenibacillus popilliae ATCC 14706T …, UniProt A0A0D6CAG5 1-327)
T1 sequence: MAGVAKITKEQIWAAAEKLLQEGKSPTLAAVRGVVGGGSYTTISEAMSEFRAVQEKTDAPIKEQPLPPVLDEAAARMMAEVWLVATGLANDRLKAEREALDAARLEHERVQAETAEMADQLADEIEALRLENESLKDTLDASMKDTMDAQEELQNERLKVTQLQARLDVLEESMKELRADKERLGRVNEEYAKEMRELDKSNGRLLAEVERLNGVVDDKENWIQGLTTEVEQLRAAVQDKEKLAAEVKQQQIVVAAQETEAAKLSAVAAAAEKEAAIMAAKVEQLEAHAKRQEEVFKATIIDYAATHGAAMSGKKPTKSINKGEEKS

[2] = target: T2, Orf16 (KfrA homolog), His-tagged (Paenibacillus popilliae ATCC 14706T …, UniProt A0A0D6CB60 1-326)
T2 sequence: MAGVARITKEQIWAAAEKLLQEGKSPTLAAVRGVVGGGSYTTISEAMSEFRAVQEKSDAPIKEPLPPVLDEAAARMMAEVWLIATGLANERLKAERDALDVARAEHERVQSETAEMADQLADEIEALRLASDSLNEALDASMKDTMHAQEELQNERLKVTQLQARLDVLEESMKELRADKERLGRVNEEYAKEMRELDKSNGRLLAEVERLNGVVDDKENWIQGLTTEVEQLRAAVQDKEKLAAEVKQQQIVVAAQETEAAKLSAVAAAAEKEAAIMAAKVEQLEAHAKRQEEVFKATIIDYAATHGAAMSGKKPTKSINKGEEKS

[3] = target: T2, Orf16 (KfrA homolog), His-tagged; remark: listed apart in the source

Binder | binding result [1] | binding result [2] | binding result [3]
B1 | binds | binds | 
B2 | binds | binds | 
B3 |  |  | no binding
